Experimental data: paper PMC4895218, “Structural flexibility of the periplasmic protein, FlgA, regulates flagellar P-ring assembly in Salmonella enterica” (Scientific Reports, 2016)
Residue numbers refer to the chain shown, from its start. Numbers in names are those of the source.

B1: FlgA_(R113C-S190C) (purified, histidine tag removed) (natural protein)
chain: QDINAQLTTWFSQRLAGFSDEVVVTLRSSPNLLPSCEQPAFSMTGSAKLWGNVNVVARCANEKRYLQVNVQATGNYVAVAAPIARGGKLTPANVTLKRGRLDQLPPRTVLDICQIQDAVSLRDLAPGQPVQLTMIRQAWRVKAGQRVQVIANGEGFSVNAEGQAMNNAAVAQNARVRMTSGQIVSGTVDCDGNILINL
modifications: engineered disulfide bond between C113 and C190
notes: FlgA, Salmonella enterica serovar Typhimurium, with R113C and S190C; numbers count on: the mature protein; also called covalently closed form of FlgA; source: purified; N-terminal-fused histidine tag removed with thrombin prior to gel filtration; not shown: His tag, N-terminal, cleaved
B2: FlgA (purified, histidine tag removed) (natural protein, Salmonella enterica serovar Typhimurium)
chain: B1 chain with C113R, C190S
notes: FlgA, Salmonella enterica serovar Typhimurium; numbers count on: the mature protein (Q1-L198); The crystallised FlgA was another construct (C-terminal hexa-histidine-tagged precursor purified from the periplasm of E. coli); source: purified; N-terminal-fused histidine tag removed with thrombin prior to gel filtration; not shown: His tag, N-terminal, cleaved

Tests used:
[1] = biological target: T1, N-terminally His-tagged FlgI (Salmonella enterica serovar Typhimurium, UniProt P15930 20-365); experiment: SPR; Biacore T200, 25 °C; FlgA or FlgA R113C-S190C immobilised on CM5 chip by amine coupling, FlgI as analyte; 10 mM HEPES, 150 mM NaCl, 0.05% Surfactant P20, pH 7.4; two-state reaction model; details: both partners purified
T1 construct: FlgI, flagellar P-ring component protein, Salmonella enterica serovar Typhimurium; Probably without its Sec signal peptide (surmise); also called His-FlgI; source: E. coli Origami2 (DE3), co-expressed, in cell extract (pull-down); purified (SPR); not shown: His tag, N-terminal, kept
T1 sequence (looked up): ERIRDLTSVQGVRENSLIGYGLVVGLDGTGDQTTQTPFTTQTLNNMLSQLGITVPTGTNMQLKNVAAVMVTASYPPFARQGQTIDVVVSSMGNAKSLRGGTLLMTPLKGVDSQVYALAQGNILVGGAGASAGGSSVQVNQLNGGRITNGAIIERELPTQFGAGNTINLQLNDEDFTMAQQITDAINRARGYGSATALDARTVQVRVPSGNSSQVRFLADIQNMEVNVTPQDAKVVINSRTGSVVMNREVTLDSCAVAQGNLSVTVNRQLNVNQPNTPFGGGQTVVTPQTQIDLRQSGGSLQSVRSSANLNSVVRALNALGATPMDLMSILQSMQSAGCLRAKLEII

[2] = biological target: T1, N-terminally His-tagged FlgI; experiment: SPR; Biacore T200, 25 °C; FlgI immobilised on CM5 chip by amine coupling, FlgA or FlgA R113C-S190C as analyte; 10 mM HEPES, 150 mM NaCl, 0.05% Surfactant P20, pH 7.4; two-state reaction model; details: both partners purified

| Binder | Kd [1] | Kd [2] |
| --- | --- | --- |
| B1 | 166 nM | 106 nM |
| B2 | 354 nM | 126 nM |
